In publication PMC7554302, “The Reversible Non-covalent Aggregation Into Fibers of PGLa and Magainin 2 Preserves Their Antimicrobial Activity and Synergism” (Frontiers in Cellular and Infection Microbiology, 2020):
Where no end group is shown, it is not given here.

Target: the molecule itself
Assay: transmission electron microscopy + FTIR; negative-stain TEM of the samples fibrillated in Mueller-Hinton medium; FTIR of fibril pellets prepared in 50 mM phosphate buffer pH 7.4

B1: magainin 2a (peptide)
peptide: GIGKFLHSAKKFGKAFVGEIMNS-NH2
notes: magainin 2, antimicrobial peptide of Xenopus laevis skin secretions, cut from the magainins precursor; Forms fibrils (many copies); source: synthetic peptide (solid-phase synthesis, Fmoc chemistry; reverse phase HPLC purified)
binding result: binds
